The target in this assay is GST-p65, purified recombinant (UniProt Q04206). Description: alanine-scanning peptide array probed with GST-p65, anti-GST immunoblot. For orientation: In western blotting, separated proteins are transferred to a membrane and probed.

The source of these data is paper PMC7450122.

Chain of UniProt Q04206 (Q04206 whole entry, looked up): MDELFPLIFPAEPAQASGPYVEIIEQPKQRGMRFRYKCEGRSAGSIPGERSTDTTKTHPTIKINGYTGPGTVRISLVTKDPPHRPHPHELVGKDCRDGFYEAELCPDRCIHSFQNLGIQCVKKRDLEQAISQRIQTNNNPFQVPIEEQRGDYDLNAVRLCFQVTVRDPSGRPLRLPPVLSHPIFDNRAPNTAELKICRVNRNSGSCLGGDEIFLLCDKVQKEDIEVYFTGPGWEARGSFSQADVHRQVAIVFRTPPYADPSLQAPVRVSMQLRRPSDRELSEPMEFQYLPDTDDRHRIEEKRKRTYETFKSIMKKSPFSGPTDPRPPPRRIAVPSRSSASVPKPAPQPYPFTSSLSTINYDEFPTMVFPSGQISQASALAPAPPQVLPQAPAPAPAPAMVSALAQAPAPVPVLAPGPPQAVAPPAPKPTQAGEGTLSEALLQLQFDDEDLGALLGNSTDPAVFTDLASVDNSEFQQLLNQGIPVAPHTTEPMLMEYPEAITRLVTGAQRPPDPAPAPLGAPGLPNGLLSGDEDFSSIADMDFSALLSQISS

Regarding USP7 peptide A23 (629-646, …) K633A, the percent of parent (% of parent peptide) is less than 60.
The same measure for USP7 peptide A23 (629-646, …) R634A: less than 60; for USP7 peptide C13 (829-846, …) D833A: less than 60.
For USP7 peptide C13 (829-846, …) F839A, the percent of parent (% of parent peptide) was less than 60.
The same measure for USP7 peptide C13 (829-846, …) M835A: less than 60.
For the substance USP7 peptide C13 (829-846, …) Y845A, the percent of parent (% of parent peptide) is less than 60.
Then USP7 peptide C20 (857-874, …) Q872A, with less than 60.
In the case of USP7 peptide C25 (877-894, …) D887A, the percent of parent (% of parent peptide) was less than 60.
Then USP7 peptide C25 (877-894, …) F888A, with less than 60; and USP7 peptide C25 (877-894, …) F894A, with less than 60.
In the case of USP7 peptide C30 (897-914, …) E905A, the percent of parent (% of parent peptide) was less than 60.
As to USP7 peptide C30 (897-914, …) F903A, the percent of parent (% of parent peptide) is less than 60.
For the substance USP7 peptide C30 (897-914, …) K914A, the percent of parent (% of parent peptide) was less than 60.
For the substance USP7 peptide C30 (897-914, …) L899A, the percent of parent (% of parent peptide) was less than 60.
